T1: PKD2(h) (human, UniProt Q9BZL6 1-878, limits assumed)
T1 sequence (looked up): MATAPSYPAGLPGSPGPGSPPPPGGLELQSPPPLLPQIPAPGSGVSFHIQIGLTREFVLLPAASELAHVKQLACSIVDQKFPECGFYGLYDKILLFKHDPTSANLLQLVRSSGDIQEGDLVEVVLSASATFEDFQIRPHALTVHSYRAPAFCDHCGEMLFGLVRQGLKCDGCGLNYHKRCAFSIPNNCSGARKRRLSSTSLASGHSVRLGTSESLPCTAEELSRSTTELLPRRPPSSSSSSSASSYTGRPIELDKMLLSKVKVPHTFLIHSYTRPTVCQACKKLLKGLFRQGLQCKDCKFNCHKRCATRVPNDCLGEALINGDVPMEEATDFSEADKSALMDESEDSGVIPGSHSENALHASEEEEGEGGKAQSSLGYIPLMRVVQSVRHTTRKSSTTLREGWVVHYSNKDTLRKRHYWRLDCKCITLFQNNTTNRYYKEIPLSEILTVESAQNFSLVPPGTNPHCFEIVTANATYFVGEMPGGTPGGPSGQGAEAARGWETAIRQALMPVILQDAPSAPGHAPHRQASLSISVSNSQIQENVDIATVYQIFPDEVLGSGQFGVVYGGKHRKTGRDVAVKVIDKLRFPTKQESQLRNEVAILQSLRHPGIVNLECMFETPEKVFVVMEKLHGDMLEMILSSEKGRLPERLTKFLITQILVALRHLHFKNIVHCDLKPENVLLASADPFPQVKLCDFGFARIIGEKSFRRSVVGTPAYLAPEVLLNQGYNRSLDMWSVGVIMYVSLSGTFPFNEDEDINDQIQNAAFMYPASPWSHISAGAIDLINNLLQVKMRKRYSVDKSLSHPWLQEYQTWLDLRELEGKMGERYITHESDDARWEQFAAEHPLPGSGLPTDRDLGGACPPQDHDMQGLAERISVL

T2: EphB2(h) (human, UniProt P29323 565-986, limits assumed)
T2 sequence (looked up): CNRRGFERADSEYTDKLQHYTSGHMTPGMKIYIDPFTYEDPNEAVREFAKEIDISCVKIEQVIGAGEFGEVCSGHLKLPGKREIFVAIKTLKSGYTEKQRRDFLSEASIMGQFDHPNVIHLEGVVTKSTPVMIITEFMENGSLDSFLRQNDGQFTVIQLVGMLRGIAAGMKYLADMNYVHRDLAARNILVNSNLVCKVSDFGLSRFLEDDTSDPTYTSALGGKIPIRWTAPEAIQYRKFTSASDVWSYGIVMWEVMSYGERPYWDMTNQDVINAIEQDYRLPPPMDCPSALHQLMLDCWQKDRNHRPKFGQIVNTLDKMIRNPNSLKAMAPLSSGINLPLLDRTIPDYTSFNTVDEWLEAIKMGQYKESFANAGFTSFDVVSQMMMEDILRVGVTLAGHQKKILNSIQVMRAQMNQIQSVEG

T3: SGK(h) (human, UniProt O00141 60-431)
T3 sequence (looked up): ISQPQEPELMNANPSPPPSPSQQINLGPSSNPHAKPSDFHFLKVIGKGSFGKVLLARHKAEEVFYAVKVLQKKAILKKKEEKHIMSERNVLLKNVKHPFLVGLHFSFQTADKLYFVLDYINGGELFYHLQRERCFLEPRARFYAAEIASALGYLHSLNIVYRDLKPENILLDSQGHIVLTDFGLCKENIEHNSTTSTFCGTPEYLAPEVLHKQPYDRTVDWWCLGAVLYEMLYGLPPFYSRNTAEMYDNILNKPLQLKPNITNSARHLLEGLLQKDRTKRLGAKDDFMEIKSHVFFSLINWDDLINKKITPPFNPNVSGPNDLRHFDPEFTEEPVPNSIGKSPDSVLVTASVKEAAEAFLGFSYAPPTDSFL


Columns and labels:
Assay in all cases: cell-based or functional assay
NEK7(h) = NEK7(h) (human, UniProt Q8TDX7 1-302)
IRAK1(h) = IRAK1(h) (human, UniProt P51617 194-712, limits assumed)
PKD2(h) = target: T1, PKD2(h)
PTK5(h) = PTK5(h) (human, UniProt P42685 1-505, limits assumed)
EphB2(h) = target: T2, EphB2(h)
AMPKa1(h) = AMPKa1(h) (human, UniProt Q13131 1-559, limits assumed)
Ab1(H396P)(h) = Ab1(H396P)(h) (human, UniProt P00519 27-1130, limits assumed)
SAPK2b(h) = SAPK2b(h) (human, UniProt Q15759 1-364)
PDGFRα(h) = PDGFRα(h) (human, UniProt P16234 550-1089, limits assumed)
LIMK1(h) = LIMK1(h) (human, UniProt P53667 285-638, limits assumed)
CHK2(R145W)(h) = CHK2(R145W)(h) (human, UniProt O96017 5-543, limits assumed)
CLK3(h) = CLK3(h) (human, UniProt P49761 1-490, limits assumed)
DAPK2(h) = DAPK2(h) (human, UniProt Q9UIK4 1-370, limits assumed)
SGK(h) = target: T3, SGK(h)
JNK1α1(h) = JNK1α1(h) (human, UniProt P45983-2 1-384)
ZIPK(h) = ZIPK(h) (human, UniProt O43293 1-454, limits assumed)
CDK9/cyclin T1(h) = CDK9/cyclin T1(h) (human, UniProt P50750 1-372; O60563 1-726, limits assumed)

Chain of CHK2(R145W)(h) (O96017 5-543 R145W limits assumed): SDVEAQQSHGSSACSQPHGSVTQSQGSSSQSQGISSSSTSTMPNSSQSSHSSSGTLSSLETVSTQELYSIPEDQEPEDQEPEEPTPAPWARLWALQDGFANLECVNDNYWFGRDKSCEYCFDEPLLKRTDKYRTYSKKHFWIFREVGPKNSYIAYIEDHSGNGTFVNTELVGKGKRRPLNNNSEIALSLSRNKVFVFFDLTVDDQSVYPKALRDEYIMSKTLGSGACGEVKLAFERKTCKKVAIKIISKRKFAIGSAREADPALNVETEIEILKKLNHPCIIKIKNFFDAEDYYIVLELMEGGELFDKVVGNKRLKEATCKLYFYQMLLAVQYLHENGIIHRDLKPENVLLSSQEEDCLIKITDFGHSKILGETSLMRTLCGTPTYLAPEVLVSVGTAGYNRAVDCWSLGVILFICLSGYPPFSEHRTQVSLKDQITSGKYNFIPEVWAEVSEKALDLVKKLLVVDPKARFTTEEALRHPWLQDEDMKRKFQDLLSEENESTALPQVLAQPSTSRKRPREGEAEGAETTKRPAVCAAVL
Chain of ZIPK(h) (O43293 whole entry): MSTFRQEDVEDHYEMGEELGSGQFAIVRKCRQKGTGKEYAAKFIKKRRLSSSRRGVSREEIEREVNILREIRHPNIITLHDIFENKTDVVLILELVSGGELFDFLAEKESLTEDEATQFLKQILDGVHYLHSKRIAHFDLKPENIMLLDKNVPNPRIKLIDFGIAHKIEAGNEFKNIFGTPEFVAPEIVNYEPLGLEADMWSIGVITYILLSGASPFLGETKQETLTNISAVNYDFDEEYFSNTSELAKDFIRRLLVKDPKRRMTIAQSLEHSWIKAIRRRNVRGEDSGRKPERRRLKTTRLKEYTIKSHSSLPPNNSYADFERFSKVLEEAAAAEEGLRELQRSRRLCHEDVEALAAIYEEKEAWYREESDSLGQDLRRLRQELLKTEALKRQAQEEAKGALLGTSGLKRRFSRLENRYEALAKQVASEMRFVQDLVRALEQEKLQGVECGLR
Chain of NEK7(h) (Q8TDX7 whole entry): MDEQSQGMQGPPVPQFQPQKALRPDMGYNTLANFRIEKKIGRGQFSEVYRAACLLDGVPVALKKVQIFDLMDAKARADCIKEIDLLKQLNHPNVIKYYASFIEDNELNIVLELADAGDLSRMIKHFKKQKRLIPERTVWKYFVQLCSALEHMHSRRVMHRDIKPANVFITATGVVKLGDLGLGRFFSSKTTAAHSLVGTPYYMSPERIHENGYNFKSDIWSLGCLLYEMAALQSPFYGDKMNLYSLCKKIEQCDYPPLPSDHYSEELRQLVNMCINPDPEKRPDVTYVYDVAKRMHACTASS
Chain of SAPK2b(h) (Q15759 whole entry): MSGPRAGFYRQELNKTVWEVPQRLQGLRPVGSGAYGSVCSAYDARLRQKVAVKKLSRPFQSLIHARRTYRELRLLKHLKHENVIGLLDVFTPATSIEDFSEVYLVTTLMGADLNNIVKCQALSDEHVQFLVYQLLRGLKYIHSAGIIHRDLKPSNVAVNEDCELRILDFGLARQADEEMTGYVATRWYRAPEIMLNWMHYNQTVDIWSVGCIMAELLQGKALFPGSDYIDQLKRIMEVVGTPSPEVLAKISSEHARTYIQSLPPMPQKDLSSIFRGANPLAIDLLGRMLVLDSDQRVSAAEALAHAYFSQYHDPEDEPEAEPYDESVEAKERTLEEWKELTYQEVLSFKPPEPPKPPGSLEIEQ
Chain of IRAK1(h) (P51617 194-712 limits assumed): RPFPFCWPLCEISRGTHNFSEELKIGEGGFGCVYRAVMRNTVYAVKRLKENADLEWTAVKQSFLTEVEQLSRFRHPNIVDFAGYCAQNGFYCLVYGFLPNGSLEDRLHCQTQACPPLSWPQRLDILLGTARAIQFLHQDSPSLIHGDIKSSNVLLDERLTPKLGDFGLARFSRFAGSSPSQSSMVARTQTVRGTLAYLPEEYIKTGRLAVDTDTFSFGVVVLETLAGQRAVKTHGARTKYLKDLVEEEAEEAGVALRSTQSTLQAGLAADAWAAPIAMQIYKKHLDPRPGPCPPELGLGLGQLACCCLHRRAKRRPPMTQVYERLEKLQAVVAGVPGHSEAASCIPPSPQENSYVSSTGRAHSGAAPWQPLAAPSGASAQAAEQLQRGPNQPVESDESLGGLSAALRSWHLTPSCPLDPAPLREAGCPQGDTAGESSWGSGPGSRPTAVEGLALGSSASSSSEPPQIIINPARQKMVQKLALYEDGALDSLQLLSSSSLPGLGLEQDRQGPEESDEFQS
Chain of JNK1α1(h) (P45983 other isoform, or with tags, fused parts or gaps limits assumed): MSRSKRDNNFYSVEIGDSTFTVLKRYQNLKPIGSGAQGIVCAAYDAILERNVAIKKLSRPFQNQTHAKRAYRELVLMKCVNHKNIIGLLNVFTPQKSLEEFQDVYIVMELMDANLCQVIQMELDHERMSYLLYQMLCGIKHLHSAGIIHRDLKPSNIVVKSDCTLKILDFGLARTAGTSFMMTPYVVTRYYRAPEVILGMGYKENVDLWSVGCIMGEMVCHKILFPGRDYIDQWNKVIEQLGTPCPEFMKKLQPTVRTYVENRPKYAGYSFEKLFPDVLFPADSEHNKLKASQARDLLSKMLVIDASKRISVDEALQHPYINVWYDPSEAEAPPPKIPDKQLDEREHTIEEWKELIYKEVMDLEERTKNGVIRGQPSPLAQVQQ
Chain of CLK3(h) (P49761 whole entry): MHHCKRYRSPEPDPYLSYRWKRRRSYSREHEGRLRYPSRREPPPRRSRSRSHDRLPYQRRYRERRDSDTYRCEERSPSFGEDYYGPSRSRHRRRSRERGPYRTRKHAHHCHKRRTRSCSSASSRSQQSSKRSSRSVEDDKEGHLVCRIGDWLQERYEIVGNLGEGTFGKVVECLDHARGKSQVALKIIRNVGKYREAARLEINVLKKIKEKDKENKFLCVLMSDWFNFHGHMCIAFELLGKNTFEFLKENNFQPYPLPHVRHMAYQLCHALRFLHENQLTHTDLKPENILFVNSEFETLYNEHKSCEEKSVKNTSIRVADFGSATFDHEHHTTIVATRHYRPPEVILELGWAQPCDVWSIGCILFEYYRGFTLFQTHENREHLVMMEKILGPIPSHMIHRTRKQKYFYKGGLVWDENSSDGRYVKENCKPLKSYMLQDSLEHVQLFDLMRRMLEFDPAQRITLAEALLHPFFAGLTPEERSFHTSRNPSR
Chain of Ab1(H396P)(h) (P00519 27-1130 H396P limits assumed): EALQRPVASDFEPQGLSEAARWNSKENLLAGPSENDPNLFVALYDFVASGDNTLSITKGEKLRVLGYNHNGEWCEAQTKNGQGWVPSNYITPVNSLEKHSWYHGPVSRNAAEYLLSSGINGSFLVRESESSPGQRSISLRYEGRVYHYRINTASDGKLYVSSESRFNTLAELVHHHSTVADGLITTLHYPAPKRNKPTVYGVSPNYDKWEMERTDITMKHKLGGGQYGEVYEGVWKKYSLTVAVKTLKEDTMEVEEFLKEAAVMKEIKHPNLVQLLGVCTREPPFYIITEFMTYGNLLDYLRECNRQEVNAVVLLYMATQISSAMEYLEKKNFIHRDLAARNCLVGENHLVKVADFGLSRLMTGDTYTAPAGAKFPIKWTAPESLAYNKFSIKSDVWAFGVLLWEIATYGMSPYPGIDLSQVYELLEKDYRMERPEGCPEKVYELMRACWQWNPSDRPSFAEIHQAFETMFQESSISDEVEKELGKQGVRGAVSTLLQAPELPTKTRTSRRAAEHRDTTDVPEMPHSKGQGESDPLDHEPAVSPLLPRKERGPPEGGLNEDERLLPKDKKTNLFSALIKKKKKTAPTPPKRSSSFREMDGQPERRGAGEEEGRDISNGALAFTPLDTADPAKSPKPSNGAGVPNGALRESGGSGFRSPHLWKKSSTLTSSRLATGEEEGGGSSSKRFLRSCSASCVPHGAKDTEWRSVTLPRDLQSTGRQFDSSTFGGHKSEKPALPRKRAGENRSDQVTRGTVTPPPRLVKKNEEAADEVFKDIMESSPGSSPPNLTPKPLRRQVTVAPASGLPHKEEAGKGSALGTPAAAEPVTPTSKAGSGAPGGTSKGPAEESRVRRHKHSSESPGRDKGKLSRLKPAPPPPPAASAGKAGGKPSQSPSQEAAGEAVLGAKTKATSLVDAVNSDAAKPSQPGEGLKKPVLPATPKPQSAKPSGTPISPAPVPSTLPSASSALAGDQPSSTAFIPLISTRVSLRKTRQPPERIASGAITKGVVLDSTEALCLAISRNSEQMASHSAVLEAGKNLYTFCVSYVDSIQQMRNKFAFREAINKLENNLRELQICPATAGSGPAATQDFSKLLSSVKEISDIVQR
Chain of PDGFRα(h) (P16234 550-1089 limits assumed): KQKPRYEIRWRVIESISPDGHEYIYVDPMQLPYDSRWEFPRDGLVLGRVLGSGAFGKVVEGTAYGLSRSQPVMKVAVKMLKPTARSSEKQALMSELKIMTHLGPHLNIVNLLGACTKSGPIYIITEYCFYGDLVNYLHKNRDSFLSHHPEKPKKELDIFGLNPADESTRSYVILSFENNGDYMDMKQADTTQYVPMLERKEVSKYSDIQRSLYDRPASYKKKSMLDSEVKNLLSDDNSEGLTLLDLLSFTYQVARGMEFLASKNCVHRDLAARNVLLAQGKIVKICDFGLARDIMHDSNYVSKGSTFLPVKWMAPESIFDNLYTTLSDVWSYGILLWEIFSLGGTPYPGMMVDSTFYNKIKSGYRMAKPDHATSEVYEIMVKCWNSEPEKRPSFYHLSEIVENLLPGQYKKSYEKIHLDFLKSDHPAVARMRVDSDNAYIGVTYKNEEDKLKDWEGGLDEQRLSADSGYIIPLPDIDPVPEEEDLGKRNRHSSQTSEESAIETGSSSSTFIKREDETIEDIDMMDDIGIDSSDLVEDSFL

Binder | % activity (NEK7(h)) [%] | % activity (IRAK1(h)) [%] | % activity (PKD2(h)) [%] | % activity (PTK5(h)) [%] | % activity (EphB2(h)) [%] | % activity (AMPKa1(h)) [%] | % activity (Ab1(H396P)(h)) [%] | % activity (SAPK2b(h)) [%] | % activity (PDGFRα(h)) [%] | % activity (LIMK1(h)) [%] | % activity (CHK2(R145W)(h)) [%] | % activity (CLK3(h)) [%] | % activity (DAPK2(h)) [%] | % activity (SGK(h)) [%] | % activity (JNK1α1(h)) [%] | % activity (ZIPK(h)) [%] | % activity (CDK9/cyclin T1(h)) [%]
FAKLAARLYRKALARQLGVAA [MMI-0300] | 84 | 95 | 33 | 132 | 18 | 71 | 101 | 81 | 65 | 88 | 33 | 61 | 32 | 48 | 97 | 28 | 91
KAFAKLAARLYRKALARQLGVAA [MMI-0400] | 87 | 93 | 25 | 129 | 22 | 87 | 105 | 82 | 40 | 92 | 31 | 84 | 16 | 54 | 98 | 13 | 235

Source: US20160200782A1 (MOERAE MATRIX, published 2016)
